Data from US20150246945A1 (JAPANESE FOUNDATION FOR CANCER RESEARCH, published 2015).
Bridge positions count the residues as written; N and C are the ends. Ends that are not written are not given here. * marks the point of attachment. Biotin = O=C1N[C@H]2[C@H](CS[C@H]2CCCCC(=O)*)N1

T1: EpCAM, whole protein on cells (HT-29, MCF-7, 293T transfected with full-length EpCAM plasmid pkk196) or on … (UniProt P16422 24-314, limits assumed)
T1 construct: whole, on cells; Used for both cell-surface EpCAM and EpCAM carried on HT-29 exosomes; the assay field says which; also called EpCAM on HT-29; EpCAM-expressing cells
T1 sequence (looked up): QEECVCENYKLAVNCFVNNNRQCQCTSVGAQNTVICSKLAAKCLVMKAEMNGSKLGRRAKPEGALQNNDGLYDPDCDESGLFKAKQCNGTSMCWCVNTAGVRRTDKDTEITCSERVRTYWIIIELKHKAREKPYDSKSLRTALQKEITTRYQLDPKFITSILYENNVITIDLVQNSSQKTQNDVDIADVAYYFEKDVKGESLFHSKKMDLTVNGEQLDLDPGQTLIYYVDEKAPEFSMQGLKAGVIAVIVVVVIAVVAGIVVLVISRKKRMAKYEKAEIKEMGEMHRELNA

T2: purified EpCAM (extracellular domain with myc and His tags at the C terminus, expressed in HEK-293T cells) (UniProt P16422 24-265, limits assumed)
T2 construct: extracellular domain; also called epithelial cell adhesion molecule; CD326
T2 sequence (looked up): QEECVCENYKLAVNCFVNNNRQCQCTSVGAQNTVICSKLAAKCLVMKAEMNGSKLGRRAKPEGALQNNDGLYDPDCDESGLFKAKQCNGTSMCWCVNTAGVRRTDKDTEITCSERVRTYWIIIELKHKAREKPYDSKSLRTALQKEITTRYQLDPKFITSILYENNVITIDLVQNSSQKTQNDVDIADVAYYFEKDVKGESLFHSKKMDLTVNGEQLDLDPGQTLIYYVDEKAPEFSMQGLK

B1: PE184 peptide (peptide)
peptide: Ac-KHLQCVRNICWSGGSGGSK(Biotin)-NH2
modifications: not fully specified (bridges); printed as Ac-KHLQCVRNICWSGGSGGSK(biotin)-NH2; cysteine pairing not given here
notes: Ep114 with the linker GGSGGSK, biotin-modified
B2: PE185 peptide (peptide)
peptide: Ac-KHLQCVRNICWSNNNNSNNNNK(Biotin)-NH2
modifications: not fully specified (bridges); printed as Ac-KHLQCVRNICWSNNNNSNNNNK(biotin)-NH2; cysteine pairing not given here
B3: Ep133 peptide (peptide)
peptide: EHLHCLGSLCWP
modifications: disulfide 5-10; also: FITC-modified, position not given here
notes: Synthetic peptide, FITC-modified in fluorescence depolarization and cell staining
B4: Ep114 peptide (peptide)
peptide: KHLQCVRNICWS
modifications: disulfide 5-10; also: FITC-modified, position not given here
notes: as for B3
B5: Ep114(K1F) variant phage (peptide)
chain: FHLQCVRNICWS
modifications: not fully specified (bridges); cysteine pairing not given here; also: displayed on phage
notes: also called variant in which lysine was substituted by phenylalanine (F); not shown: not described
B6: Ep114(K1M) variant phage (peptide)
chain: MHLQCVRNICWS
modifications: not fully specified (bridges); cysteine pairing not given here; also: displayed on phage
notes: also called variant in which lysine was substituted by methionine (M); not shown: not described
B7: Ep114(K1W) variant phage (peptide)
chain: WHLQCVRNICWS
modifications: not fully specified (bridges); cysteine pairing not given here; also: displayed on phage
notes: also called variant in which lysine was substituted by tryptophan (W); not shown: not described
B8: Ep114(K1Y) variant phage (peptide)
chain: YHLQCVRNICWS
modifications: not fully specified (bridges); cysteine pairing not given here; also: displayed on phage
notes: also called variant in which lysine was substituted by tyrosine (Y); not shown: not described
B9: Ep301 control (peptide)
peptide: KSLQSINNLSWP
modifications: also: FITC-modified, position not given here
notes: Ep301 with cysteine at positions 5 and 10 substituted by serine
B10: Ep114(K1A) variant phage (peptide)
chain: AHLQCVRNICWS
modifications: not fully specified (bridges); cysteine pairing not given here; also: displayed on phage
notes: also called variant in which lysine at the 1st residue was substituted by alanine (A); not shown: not described
B11: Ep114(K1I) variant phage (peptide)
chain: IHLQCVRNICWS
modifications: not fully specified (bridges); cysteine pairing not given here; also: displayed on phage
notes: also called variant in which lysine at the 1st residue was substituted by isoleucine (I); not shown: not described
B12: Ep114(K1N) variant phage (peptide)
chain: NHLQCVRNICWS
modifications: not fully specified (bridges); cysteine pairing not given here; also: displayed on phage
notes: also called variant in which lysine at the 1st residue was substituted by asparagine (N); not shown: not described
B13: Ep114(K1S) variant phage (peptide)
chain: SHLQCVRNICWS
modifications: not fully specified (bridges); cysteine pairing not given here; also: displayed on phage
notes: also called variant in which lysine at the 1st residue was substituted by serine (S); not shown: not described
B14: Ep114(L3A) variant phage (peptide)
chain: KHAQCVRNICWS
modifications: not fully specified (bridges); cysteine pairing not given here; also: displayed on phage
notes: not shown: not described
B15: Ep114-displaying phage (peptide)
chain: KHLQCVRNICWS
modifications: cysteine pairing not given here; also: displayed on phage
notes: not shown: fusion and linker not described

target: T1, EpCAM, whole protein on cells (HT-29, …); experiment: pull-down of HT-29 exosomes on peptide-loaded streptavidin beads, Western blot with anti-EpCAM
Protocol: 250 μg of streptavidin-magnetic beads (Dynabeads® M-280 streptavidin, VERITAS Corp.) in TBS containing 2% BSA was added to 20 μg of the biotinylated Ep114 peptide and shaken at room temperature for 30 minutes, followed by washing with TBS. Beads reacted without the peptide were used as a control. The anti-Ep114 antibody was added to the beads in TBST and reacted at room temperature for 1 hour. After washing with TBS, the beads were collected. The collected beads were heated at 95° C. for 5 minutes in a SDS sample buffer. After Western-blotting, the anti-Ep114 antibody was detected using HRP-labeled anti-rabbit antibodies.
The binding to exosomes was confirmed using the Western blot system in the similar method as in the preceding paragraph 1. Specifically, 20 μg of the biotinylated Ep114 peptide, the PE183 peptide, the PE184 peptide, or the PE185 peptide was bound to 250 μg of streptavidin-magnetic beads and then reacted with exosomes isolated from HT-29 cells as EpCAM-positive cells, followed by Western blot to detect the exosomes using anti-EpCAM polyclonal antibodies (see the left panel of FIG. 5C).

Does B1 bind?
Result: binds

Does B2 bind?
Result: binds

target: T2, purified EpCAM (extracellular domain …); experiment: fluorescence depolarization
Protocol: (§1) Each FITC-modified EpCAM peptide or control peptide was suspended at a concentration of approximately 100 μM in PBS. After centrifugation, the supernatant was collected and diluted 10-fold, and the absorbance was measured at 495 nm From the measurement value, the molar concentration of the peptide was determined using the formula of Beer-Lambert of the following expression 1: […]
(§2) EpCAM is diluted with PBS into several concentrations from 0 until reaching equilibrium (40 nM for the Ep133 peptide), and the FITC-modified peptide whose precise concentration has been measured by the aforementioned method is added to the dilutions thus prepared. The sample was left at a temperature for measurement for 30 minutes or longer and subjected to polarization measurement using a spectrofluorometer FP-6500 (JASCO Corp.) equipped with an automatic polarization measurement unit (JASCO Corp., APH-103). Kd was estimated by curve fitting according to the Hill equation.

With B3 as the binder, how does the “fold strength of binding compared with Ep301” value read?
The value was no less than 10 times.

B4 was tested. Which “fold strength of binding compared with Ep301” value did it give?
The value was no less than 10 times.

target: T2, purified EpCAM (extracellular domain …); experiment: phage ELISA on immobilized EpCAM
Protocol: The phages displaying the peptides in which each amino acid of Ep114 was substituted by alanine are added to the EpCAM- or anti-Ep114 antibody-immobilized plate, and the plate is left still at room temperature for 1 hour. After washing with TBST, HRP-labeled anti-M13 antibodies were reacted therewith, followed by detection using ABTS (2,2′-azinobis(3-ethylbenzothiazoline-6-sulfonic acid). The binding activity against EpCAM is shown in FIG. 3A, and the binding activity against the anti-Ep114 antibody is shown in FIG. 3B. M13KE is a phage displaying no peptide and is a negative control.
As with the alanine substitution variants, variant phages were prepared by the introducing specific mutations to lysine at the 1st residue based on inverse PCR method and analyzed for binding activity against EpCAM. The analysis method involved evaluation by ELISA in the same way as in the functional analysis of the Ep114 peptide by the alanine scanning. In the figure, EpCAM+ and EpCAM− represent the presence and absence of EpCAM immobilization onto a plate, respectively. Corrected value represents a value subtracting the measurement of EpCAM− from the measurement of EpCAM+.

Does B5 bind?
Result: binds

Does B6 bind?
Result: binds

Does B7 bind?
Result: binds

Does B8 bind?
Result: binds

target: T2, purified EpCAM (extracellular domain …); experiment: fluorescence depolarization, FITC-modified peptide, Hill fit
Protocol: as §1, §2

Which Kd does the source give for B3 here?
Its Kd is 1.5 nM.

How did the Kd turn out when B4 was run?
Its Kd is 1.6 nM.

For KSLQCINNLCWP (disulfide 5-10; also: FITC-modified, position not given here) [Ep301 peptide], which Kd is on record?
Its Kd is 20 nM.

target: T2, purified EpCAM (extracellular domain …); experiment: fluorescence depolarization, FITC-modified peptide
Protocol: as §1, §2
The dissociation constants of the EpCAM-binding peptide Ep301 (FIG. 2(D)) disclosed in Patent Literature 2 and Ep301 control (FIG. 2(E)), which was a control peptide derived from Ep301 by the substitution of cysteine at positions 5 and 10 by serine, and a sequence of EpCAM from residue 106 to 119 (FIG. 2(F)) having partial homology to EpCAM-binding peptides were measured similarly.

Does B9 bind?
Result: no binding

Does KAKQCNGTSMCWPK (cysteine pairing not given here; also: FITC-modified, position not given here) [EpCAM partial sequence (sequence of EpCAM from residue 106 to 119)] bind?
Result: no binding

target: T2, purified EpCAM (extracellular domain …); experiment: phage bound to EpCAM, captured on beads, phages counted
Protocol: The analysis was conducted using the variants in which lysine at the 1st residue was substituted by alanine (A), asparagine (N), serine (S), or isoleucine (I), and M13KE, Ep114, and the variant in which leucine at the 3rd residue was substituted by alanine as controls. Each phage of 1×10¹⁰ PFU was bound to 1 μg of EpCAM, and then mixed with 0.4 mg of beads pretreated overnight with 0.5% BSA and B&W buffer (5 mM Tris-HCl (pH 7.5), 0.5 mM EDTA, and 1 M NaCl). The number of phages bound to the beads was counted.

Does B10 bind?
Result: binds

Does B11 bind?
Result: binds

Does B12 bind?
Result: binds

Does B13 bind?
Result: binds

Does B14 bind?
Result: binds

Does B15 bind?
Result: binds
